# Assay results: patent US20150316548A1, “PROGRANULIN AS MARKER FOR AUTOIMMUNE DISORDERS” (UNIVERSITAET DES SAARLANDES, priority 2012, published 2015)
# Entries after “also recorded” stand apart in the source; their conditions may differ. Where two headings read alike, the source gives them in different places.
# Assays:
# [1] = test system: phosphatase for progranulin's phosphorylated Ser81 in LCLs; assay: Phosphatase inhibitors added to cultured LCLs, progranulin isoforms read by IEF; type: cell-based, human
# Excerpt: FIG. 14 a) to b): Identification of PP1 as the responsible phosphatase. a) Phosphatase inhibitors at specific concentrations or DMSO only as control were administrated for three days to cultured LCLs derived from a healthy donor and from a patient with hyperphosphorylated progranulin. Subsequently LCL lysates were subjected to IEF. Lanes (1) and (4) show the IEF of the LCL from a healthy control and a progranulin-antibody positive patient cultured without phosphatase inhibitors. […] The further lanes show the administration of following phosphatase inhibitors to LCL-lysates from healthy controls (top) and from progranulin-antibody positive patients (bottom): 1) DMSO, 2) of serine/threonine inhibitor cocktail 1, 3) of NIPP1 at 10 pM, 4) of okadaic acid at 10 nM, 5) of okadaic acid at 0.1 nM and of okadaic acid at 500 nM.
# Isoelectric focusing was performed as described before. In short, whole blood cell extracts or extracts of LCLs were washed and treated with lysis buffer (8 M urea, 0.1 M NaH2PO4, 0.01 M Tris HCl, 0.1% NP40). Following to this, isoelectric focusing was performed (pH 3-10, Invitrogen) according to the manufacturer's protocol (1 hour 100 V, 1 hour 200 V, and 30 minutes 500 V). After semi-dry blotting on PVDF membranes (450 mA, 24V, 1 hour), patient's plasma was used for immunodetection of progranulin from whole blood cell lysates and murine anti-FLAG antibody (Sigma) was used at a dilution of 1:2,000 for immunodetection of progranulin from LCL lysates. These LCLs had been previously transfected with FLAG-tagged progranulin in pRTS. The membrane was blocked in TST/milk buffer (10% milk in 10 mM Tris/HCl, pH 7.5, 150 mM NaCl, 0.1% [v/v] Tween 20) overnight, washed, and incubated for 1 hour with plasma in TST or murine anti-FLAG-antibody. After 3 washings in TST, the membranes were incubated for 1 hour at room temperature with PDX-labeled goat anti-human IgG Ab (Dianova) diluted 1:5,000 or PDX-labeled anti-mouse IgG Ab (Biorad) in TST, subsequently washed in TST followed by ECL development. To perform IEF on different cell fractions, PBMCs and granulocytes were isolated by density double gradient centrifugation (Histopaque-1077 and -1119, Sigma). Monocytes, B-cells and T-cells were sorted with CD14, CD19 and CD3. Mucosa cells were obtained by swab from the oral cavities of patients and controls.
# To identify the responsible phosphatase for progranulin's phosphorylated Ser81 a panel of different phosphatase inhibitors was administered at specific concentrations to the cultured LCLs, which had been obtained from progranulin-antibody positive patients and from healthy controls with the aim to inhibit particular groups of phosphatases. This panel consisted of serine/threonine phosphatase inhibitor cocktail, tyrosine phosphatase inhibitor, okadaic acid at 500 nM, 10 nM, 0.1 nM and NIPP1 at 10 pM. Following to this, IEFs of the lysates of these LCLs were performed to check for possible differences in the phosphorylation state.
# [2] = test system: hyperphosphorylated progranulin isoform; assay: Treatment of sera / cell lysates with alkaline phosphatase before IEF; type: biochemical, human; conditions: samples of progranulin-antibody positive patients
# Method: Treatment of whole blood cell lysates or LCL lysates with alkaline phosphatase was conducted in principal as previously described. FastAP thermo sensitive alkaline phosphatase (Fermentas) was used. In short LCLs were washed 3 times with PBS. The lysis was performed in a buffer of 10 mM Tris HCl pH 8 for 1 h at 4° C. Following to this the supplied FastAP-Buffer (10×Fast AP-Buffer: 100 mM Tris-HCl, pH 8.0, 50 mM MgCl2, 1 M KCl, 0.2% Triton X-100 and 1 mg/ml BSA) was added to the cell lysate. For 0.1 mg/ml lysed protein extract, 10 units of FastAP were utilized. After 1 h at 37° C., the alkaline phosphatase reaction was stopped by the addition of 50 mM EDTA. Equal volumes of sample and loading buffer were mixed, followed by IEF and immuno-detection.
# [3] = cited from earlier work
# TNF-Tg/GRN−/− mice = conditions: cited from earlier work
# TNF-α-receptors 1 and 2 = conditions: mouse models, versus Etanercept; cited from earlier work
# [4] = test system: cytotoxic effects of TNF-α; conditions: in vitro; cited from earlier work
molecule,measurement,setting,value
C=C1[C@@H](O)[C@@H]2O[C@]3(CC[C@H](/C=C/[C@@H](C)[C@@H]4CC(C)=C[C@@]5(O[C@H](C[C@@](C)(O)C(=O)O)CC[C@H]5O)O4)O3)CC[C@H]2O[C@@H]1[C@@H](O)C[C@H](C)[C@H]1O[C@@]2(CCCCO2)CC[C@H]1C [okadaic acid],normal and hyperphosphorylated progranulin isoforms in IEF,"[1]; 0.1 nM (specific for PP2A), listed as ocadaic acid",didn't change the phosphorylation state
same,normal and hyperphosphorylated progranulin isoforms in IEF,[1]; 10 nM (specific for PP1),led to the appearance of the hyperphosphorylated progranulin isoform and the disappearance of the normal progranulin isoform
same,normal and hyperphosphorylated progranulin isoforms in IEF,"[1]; 10 nM (specific for PP1), listed as Ocadaic acid",led to the appearance of the hyperphosphorylated progranulin isoform
same,normal and hyperphosphorylated progranulin isoforms in IEF,[1]; 500 nM (0.5 μM),led to the appearance of the hyperphosphorylated progranulin isoform and the disappearance of the normal progranulin isoform
same,normal and hyperphosphorylated progranulin isoforms in IEF,"[1]; 500 nM (0.5 μM), listed as Ocadaic acid",led to the appearance of the hyperphosphorylated progranulin isoform
alkaline phosphatase,additional (aberrantly charged) progranulin isoform in IEF after pretreatment,[2],disappearance of the additional progranulin isoform; also recorded: had lost the aberrantly charged progranulin isoform
TNF-α,half-life,[3]; in vivo,about 20 min
"progranulin: secreted glycoprotein, precursor with N-terminal signal peptide and seven granulin motifs; SEQ ID NO: 1 (protein, listed as Homo sapiens, misc (1)..(593) Progranulin) MWTLVSWVALTAGLVAGTRCPDGQFCPVACCLDPGGASYSCCRPLLDKWPTTLSRHLGGPCQVDAHCSAGHSCIFTVSGTSSCCPFPEAVACGDGHHCCPRGFHCSADGRSCFQRSGNNSVGAIQCPDSQFECPDFSTCCVMVDGSWGCCPMPQASCCEDRVHCCPHGAFCDLVHTRCITPTGTHPLAKKLPAQRTNRAVALSSSVMCPDARSRCPDGSTCCELPSGKYGCCPMPNATCCSDHLHCCPQDTVCDLIQSKCLSKENATTDLLTKLPAHTVGDVKCDMEVSCPDGYTCCRLQSGAWGCCPFTQAVCCEDHIHCCPAGFTCDTQKGTCEQGPHQVPWMEKAPAHLSLPDPQALKRDVPCDNVSSCPSSDTCCQLTSGEWGCCPIPEAVCCSDHQHCCPQGYTCVAEGQCQRGSEIVAGLEKMPARRASLSHPRDIGCDQHTSCPVGQTCCPSLGGSWACCQLPHAVCCEDRQHCCPAGYTCNVKARSCEKEVVSAQPATFLARSPHVGVKDVECGEGHFCHDNQTCCRDNRQGWACCPYRQGVCCADRRHCCPAGFRCAARGTKCLRREAPRWDAPLRDPALRQLL",clinical response of spontaneous arthritis,TNF-Tg/GRN−/− mice,rapid clinical recovery
same,plasma levels of cartilage oligomeric matrix protein (COMP),TNF-Tg/GRN−/− mice,decreased
same,strength of the anti-inflammatory effect,TNF-α-receptors 1 and 2,comparable to the effect of the synthetic TNF-blocker “Etanercept”
same,protection of cells from cytotoxic effects of TNF-α,[4],protected cells in vitro from cytotoxic effects of TNF-α
same,half-life,"[3]; progranulin, reference [1]",about 40 h
"NIPP1: phosphatase inhibitor, at 10 pM specific for PP1 (protein, UniProt Q12972 1-351, looked up) Nuclear inhibitor of protein …: MAAAANSGSSLPLFDCPTWAGKPPPGLHLDVVKGDKLIEKLIIDEKKYYLFGRNPDLCDFTIDHQSCSRVHAALVYHKHLKRVFLIDLNSTHGTFLGHIRLEPHKPQQIPIDSTVSFGASTRAYTLREKPQTLPSAVKGDEKMGGEDDELKGLLGLPEEETELDNLTEFNTAHNKRISTLTIEEGNLDIQRPKRKRKNSRVTFSEDDEIINPEDVDPSVGRFRNMVQTAVVPVKKKRVEGPGSLGLEESGSRRMQNFAFSGGLYGGLPPTHSEAGSQPHGIHGTALIGGLPMPYPNLAPDVDLTPVVPSAVNMNPAPNPAVYNPEAVNEPKKKKYAKEAWPGKKPTPSLLI",normal and hyperphosphorylated progranulin isoforms in IEF,[1]; 10 pM (specific for PP1),led to the appearance of the hyperphosphorylated progranulin isoform and the disappearance of the normal progranulin isoform
